These results are taken from the DeepSol protein solubility set.

The data set in a line: soluble on expression in E. coli; label from the status in PepcDB or PDB records.
For the sequence “MKKNDLSALQENCFCFCDEEISREAPFQVPIDFPEGFKVDTAEASAAVTWSTDNLSCISEPCLIQTGPEPEDIGVRYAVRVQGTITLLVSVSPVRNQYGQGDGAVSVIHTEEIDQVVYYAAQSGRCPDFSQITVEDLLIVPPFYGSPLTVAGTLVLPPSPDPQSYVFTANTGDSTVSVIDADLNTVVKTIPFSDVPTNLGVTFDKAFTYVLHGNTNLVSVIDNKTLTIINTITVGGGPRKIEFDPTDEFAYVMAAGSIYVINTASQSVIDVIPIPGALDFALDPNGQYVYTANGSSWSVDKYDVNTGQLVESIIDTFEFPSLITTPYAGNFAYVLNGELWPKGVTEISLSPLSRGGDFSRLFETLRTIVFSLDSTRAYFLEPYSEPFLINNLYVVNTARQRIIANVSLPGAFDLAVTPDKQYIYAAQPNDNAVTVYRTSDYTAVTVIPVGAGPSAIAMLEHHHHHH”, the “soluble on expression in E. coli” value is reported as “not soluble”. With “MKKPIEFYLSGDRVYSTREKAINQLYNNRGYGELKGDKLFLSLIEAAYLTEKGWIKVVDKDKELKFDDLMKLGKSRDEDFDIKYIVYKDLRDRGYIVKSALKFGSHYRVYRKDAEHSDWLIWVLRENQRLSPNDITARARVAHGVRKNMVLAIVDEDGDVVYYKVEWIKF”, the “soluble on expression in E. coli” value is reported as “soluble”. On to “MKKPKHDLTHVRHDPAHCLAPGLFRSLKRGDRKRCKLDVTYTFGEDESMRFVGFEPLGADDMRLLQGIVALGGPNGILLTPEPTSETGRQLRLFLEPRFEAIEQDGLVVRESLTKLLSETGMTDSGDNIKALKASLLRMSNVTILVTKGRRQAAFHLMSHAFDETDGRLWVALNPRIAEAILGHRPYARIDMAEVRVLQTDPARLMHQRLCGWIDPGKSGRVELDTLCGYVWPDEANAEAMKKRRQTARKALAELAAVGWVVNEYAKGKWEIKRPGPTATAPVYRRNVPLLPS”, for which the “soluble on expression in E. coli” value is recorded as “not soluble”. With “MKKQSCSHTTEDVPFPQANRRKFLQLAALGSSIGLFSVVSGISEARAEKKAGTLLLSCMDYRLMDEIERYMLRRGLYHNYDHIVLAGASLGAVTDKYPAWSRTFWDHLDLAVNLHEIHTVMVMDHRDCGAYKILLGEDYSKDTDRETAEHTIKLTQLKDMINKKYPKIEVETLLMGLNGEVEAIPTAVAKQG”, the “soluble on expression in E. coli” value is recorded as “not soluble”.

Regarding “MKKSLDEHAERFSDHADAYDEDQDSAAYRACVNFVVDHAAPESDDVVLDLGTGTGAIAFALASDAAEIIGRDISDGMLEKAREKADGRGVENVSFGDGRFRAPNVDRPVDIVTSNFAMHHLGDDEKREAIDTIADLGPRRIVLGDVMLFGDDDPDAPFYSPEVDDPATVGVLADAFTDAGYALTAVEMVTEQAGVLVAERVKSDLEHHHHHH”, the “soluble on expression in E. coli” value is “soluble”.

Consider “MKKVAVLLAPGFEEAEAIVTLDILRRLHIDVETLACAESRAVVSYHDIPMVADSTLSERQQALFDAVVLPGGPQGSANLAANPAVIAFVARHDAAGKLICPICSAAARVLGAHGLLKGRRYVCSGDLWKAVPEGVYVDAPVVEDGNLISGKGLGHVFDFALTLSARLLGDDAPVREQAEHIYYPW”, for which the “soluble on expression in E. coli” value is reported as “not soluble”. To “MKKVITYGTFDLLHWGHIKLLERAKQLGDYLVVAISTDEFNLQKQKKAYHSYEHRKLILETIRYVDEVIPEKNWEQKKQDIIDHNIDVFVMGDDWEGKFDFLKDQCEVVYLPRTEGISTTKIKEEIAGL” belongs “soluble”; to “MKKVLILGGGIAGVAAAIAFRKRGFEVEVVSDREFLFIYPIAIWIPVGTERFRNVAFPLEKVARKHGFSLTLDTVTAINASRDSVTLEKAGQRSDFDFLVIALGSDKMKHEGIEHTLSICGAPEHSIRLKEKIDALIERGHGKIAFGFGGNPKDPSAVRGGPGFELFFNLHHKLTKLGIRDNFEMTFFAPMAQPGAKMGQKALDMMAVMFKAKNFRQRYGKKITRFEVDGVVFEDGSKLESDLTMFIPAGSGHSVFRNSDLPLSEAGFVKIDDFCRVVGVDGWYAVGDSAALEGPEWKAKQGHIAEFMADCAANNCLAEHFGHQEPMRGYQEHLNVLCVMDTGDGAGFVYRTGHSEMFIPMPVVGHWLKKAWGYYYKLSKMKYIPRIPGMLEHHHHHH”, “soluble”; to “MKKWFPALLFSLCVSGESSAWNNIVFYSLGDVNSYQGGNVVITQRPQFITSWRPGIATVTWNQCNGPEFADGFWAYYREYIAWVVFPKKVMTQNGYPLFIEVHNKGSWSEENTGDNDSYFFLKGYKWDERAFDAGNLCQKPGEITRLTEKFDDIIFKVALPADLPLGDYSVKIPYTSGMQRHFASYLGARFKIPYNVAKTLPRENEMLFLFKNIGGCRPSAQSLEIKHGDLSINSANNHYAAQTLSVSCDVPANIRFMLLRNTTPTYSHGKKFSVGLGHGWDSIVSVNGVDTGETTMRWYKAGTQNLTIGSRLYGESSKIQPGVLSGSATLLMILP”, “soluble”.

Turning to “MKKYADDSLMLHTDLYQINMVETYWEDRMHERRAVFEVFFRKLPFGNGYAVFAGLERVIQFLQQFRFSDSDIDYLRQELGYRDDFLDYLRTLRFTGTVRSMREGEVVFANEPIMRIEAPLAEAQLIETAILNIINFQTLIATKASRIKHILGDEPALEFGSRRAQEMDAALWGARAAYIGGIEATSNVRAGKLFGIPVAGTHAHSMIQAYQDEYTAFLKYARRHKDCVFLVDTYDTLKSGVPNAIRVAKELGDQINFIGIRIDSGDLAYLSKEARKMLDEAGFPNAKIFASNDLDEDTILNLKSQGAKIDVWGIGTKLITAYDQPALGAVYKMVAIENERGEMVDTIKISGNPEKVTTPGLKRVYRIVNKINHKAEGDYIALESENPQQEERLKMFHPVYTFISKFVTNFEARDLHVTIFDNGRLVYTSPPLPDIQAYAKESLRLFWEEYKRTLNPEQYPVDLSQACWDNKMENIRKVKEKIAGASLSE”, the “soluble on expression in E. coli” value is given as “not soluble”. To “MKLFQPSEIVTSLPTQFFASLVAKVNKVVAAGHDVINLGQGNPDQPTPQHIVKALQDAAEKTIHHKYPPFRGHESLKEAVATFYQREYDVVVNPKTEVAILFGGKAGLVELPVCFTNPGDTILVPDPGYPDYLSGVALAKAQFETMPLIAENNFLPDYTKIDDSIAERAKLMFLNYPNNPTGATASKDFFDETIHFANKHNILVVHDFAYGAIGFDGQKPVSFLQADGAKDTGIEIYTLSKTFNMAGWRIAFAVGNESVIETINLLQDHMYVSIFGAIQDAAREALLSSQSCVIDLVNSYESRRNALISACHSIGWNVDIPTGSFFAWLPVPEGYTSEQFSDILLEKAHVAVAPGVGFGEHGEGYVRVGLLHTEDRLREAINRIDKLNFFKK” belongs “not soluble”; to “MKLLLLAVCVIGFVACYEVVPRASALRPRGDVRRSPLPSLSAYAPFAKSLRPASTGIRRAPAVVTLPAQKANRSVKRAPAKPLPMTLPLLPPLLPLPQFIPVPVPVLSAEGLPTLPTLAPHTFPTFTPIPGMPTMPALTMPPSFQRLLGITTTTMKPAEKAMETVQTEESDNDTTSEARAHSAPTYSKDLNTIRSRLSKFVRGSEKKVTKAEDNADWIVPFH”, “not soluble”. For the sequence “MKLNDPLVESFEFRGEIYPIDLSFNKVLDVFDVIDDDFLNEAEKCFLCLDILLDRTDLPFTYAVDLWVYIKTNFIDAERPEKPQLDIKGNPMPVVKEKEDNKKVIDLSLDAEFIYASFRQAYQINLLKEQNRLSWIEFKALLNALPDDTVMQRIIAIRQWEDDGEGSKKYRDNMRKLKAKYSLDEREEEDDGS”, the “soluble on expression in E. coli” value was “not soluble”. To “MKMIIAIVQDQDSQELADQLVKNNFRATKLATTGGFLRAGNTTFLCGVNDDRVDEILSVINQTCGNREQLVSPITPMGGSADSYIPYPVEVEVGGATVFVMPVDAFHQF” belongs “not soluble”. The entry for “MKMTVVGFWGGFPEAGEATSGYLFEHDGFRLLVDCGSGVLAQLQKYITPSDIDAVVLSHYHHDHVADIGVLQYARLITSATKGQLPELPIYGHTFDENGFHSLTHEPHTKGIPYNPEETLQIGPFSISFLKTVHPVTCFAMRITAGNDIVVYSADSSYIPEFIPFTKDADLFICECNMYAHQEAAKAGHMNSTEVASIAKDANVKELLLTHLPHTGNPADLVTEAKQIFSGHITLAHSGYVWNS” is “soluble”. The entry for “MKNDVISPEFDENGRPLRRIRSFVRRQGRLTKGQEHALENYWPVMGVEFSEAPVDFATLFGREAPVTLEIGFGMGASLVAMAKARPEQNFLGIEVHSPGVGACLASANEEGVENLRVMCHDAVEVLHKMIPDNSLSMVQLFFPDPWHKARHNKRRIVQVPFAELVLSKLKLGGVFHMATDWEAYAEHMLEVMSSIDGYKNLSESNDYVPRPESRPVTKFEQRGHRLGHGVWDLMFERVK” is “not soluble”; for “MKNNAIGSNWKDVRAELFSKEEILESDMRVAIMSELIEARNEKGISQKKLEEMSGVSQPVIARMETGKTSPQLDTVLKVLASLGKTLAVVPLEHEQV” it is “not soluble”; for “MKNNQNSNIHLLRSAKHAEPVMLDIKQLVKTYDNGHQAVKGVDLSIHQGEFIVLVGPSGCGKSSILRSIAGLESITSGEIHLAGRRVDNEKPANRDIAMVFQNYALYPHMSVYDNLAYGLKNRGVDKQTIAAKIAKVAKTLKIEEYLDRKPAKLSGGQRQRVAMGRAIVRDPQLFLFDEPLSNLDAALRAHMRLEIKKLQRELGVTSVYVTHDQVEAMTLADRIVVVKQGEIEQVGTPAEVYHQPASTFVASFIGSPAMNFLPASIKQGQLHIAGKHCYLPQFDAMSSENITLGIRPEHASLHPLTNAIELKLDIQVVEPLGPNQLVHGKIIGLESEQDFIAVTAEIPLDVHQTLPIWVALEQLHLFDQQGKRFVQSHRSCTQSSKVASTRQQ” it is “not soluble”. As to “MKNPGTHILPKNPECSKQKTLTKQLLLLELFEFQLDAQIQQNTFQLELTIQRRKEHLEIDSVMKIKNRNFANFGMFNSLHIIRFWNLFYNRISAADFPENSGFRMFATEILVKLENIGNVM”, the “soluble on expression in E. coli” value is listed as “not soluble”.

With “MKNPYVQITDQEQYKKSIRRIPPKDPNIFLIERPTAGEIIALWWTTSSRGKSTDKYIPKYFKRIYRVDMIKQRKLFIKANVISEENNTYVLTELGEMLVHKYFYIIEEHNNSSNDSFNTERRKLADKILYSLGGEI”, the “soluble on expression in E. coli” value is on record as “not soluble”. On to “MKPATYNTEAFDEWIRSRFVELNSQLEQLYYQQTDRANVQEVGTELKHTLESEGRELVKALLDEGNTDEGFDSAFDLLGNVGLYMAACRRHEITEPTRETTSPLLEASALAMHIGASIGVTPRFATAHLTTHNRAHNGIYKRFTDLPDEKLFVDYNTKGILAYKRASDALLKIQPLGISHPISHDLLRVTKQALQDVIESNQQLFNRLDTDRFFYCVRPYYKPYRVGSVVYRGANAGDFAGINVIDLTLGLCFANEASYSQMLVDKFLYMMPEDQQILRECMRRPNLMDDFLQAKGCIHQDWYQENLKLFIEVCELHGQTAIQHHNELVTKYIAEPSVSMEQQHLAKVTASGPPLHVLLASLERLRDRRAAVLRDDIRTRYYDLKKLKDSLRAAALEHHHHHH”, for which the “soluble on expression in E. coli” value is “soluble”. To “MKPKSGAVRRLEKNTMNFVLSDVADAEAEKAIRDPLVAYNLARFGESDKRDLNITIRNDDNSVTGGLVGHTARGWLYVQLLFVPEAMRGQGIAPKLLAMAEEEARKRGCMGAYIDTMNPDALRTYERYGFTKIGSLGPLSSGQSITWLEKRF” belongs “soluble”.

For the sequence “MKPNIHPEYRTVVFHDTSVDEYFKIGSTIKTDREIELDGVTYPYVTIDVSSKSHPFYTGKLRTVASEGNVARFTQRFGRFVSTKKGA”, the “soluble on expression in E. coli” value was “soluble”.
